The results in this text go back to paper PMC9464592 (Nature, 2022).

The target in experiment [1] is T1, tag-free WDR59 (human, UniProt Q6PJI9 1-974).
T1 sequence: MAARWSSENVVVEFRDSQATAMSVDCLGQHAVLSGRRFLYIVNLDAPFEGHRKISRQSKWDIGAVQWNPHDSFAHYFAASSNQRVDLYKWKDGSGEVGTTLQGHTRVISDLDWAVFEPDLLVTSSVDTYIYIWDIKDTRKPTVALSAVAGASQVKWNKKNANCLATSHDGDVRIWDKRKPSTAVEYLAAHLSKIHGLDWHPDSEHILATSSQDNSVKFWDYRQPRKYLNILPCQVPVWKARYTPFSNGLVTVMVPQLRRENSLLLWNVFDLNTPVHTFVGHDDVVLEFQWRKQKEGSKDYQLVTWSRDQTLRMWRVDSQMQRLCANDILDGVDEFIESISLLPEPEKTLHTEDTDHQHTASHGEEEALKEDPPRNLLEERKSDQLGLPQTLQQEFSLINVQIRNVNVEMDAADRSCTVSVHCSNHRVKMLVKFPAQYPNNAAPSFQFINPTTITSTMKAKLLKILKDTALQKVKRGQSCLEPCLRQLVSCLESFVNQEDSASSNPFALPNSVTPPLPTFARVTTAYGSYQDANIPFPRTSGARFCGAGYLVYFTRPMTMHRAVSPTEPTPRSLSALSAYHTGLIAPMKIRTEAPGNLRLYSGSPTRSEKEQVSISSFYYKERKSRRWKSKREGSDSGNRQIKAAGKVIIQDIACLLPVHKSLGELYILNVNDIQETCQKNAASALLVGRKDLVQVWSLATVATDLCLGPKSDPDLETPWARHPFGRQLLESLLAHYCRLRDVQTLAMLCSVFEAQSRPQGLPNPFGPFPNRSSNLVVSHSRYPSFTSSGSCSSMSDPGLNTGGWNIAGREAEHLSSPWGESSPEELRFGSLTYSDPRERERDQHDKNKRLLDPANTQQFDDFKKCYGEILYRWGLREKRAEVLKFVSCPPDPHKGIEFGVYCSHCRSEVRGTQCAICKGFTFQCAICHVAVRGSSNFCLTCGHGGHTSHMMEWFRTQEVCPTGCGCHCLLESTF
In words: SEC. A general note: Size exclusion chromatography separates by hydrodynamic size, large species first.

The target in experiment [2] is T1, tag-free WDR59. In words: cryo-EM structure.

B1: MIOS A560E (natural protein, human)
chain: MSGTKPDILWAPHHVDRFVVCDSELSLYHVESTVNSELKAGSLRLSEDSAATLLSINSDTPYMKCVAWYLNYDPECLLAVGQANGRVVLTSLGQDHNSKFKDLIGKEFVPKHARQCNTLAWNPLDSNWLAAGLDKHRADFSVLIWDICSKYTPDIVPMEKVKLSAGETETTLLVTKPLYELGQNDACLSLCWLPRDQKLLLAGMHRNLAIFDLRNTSQKMFVNTKAVQGVTVDPYFHDRVASFYEGQVAIWDLRKFEKPVLTLTEQPKPLTKVAWCPTRTGLLATLTRDSNIIRLYDMQHTPTPIGDETEPTIIERSVQPCDNYIASFAWHPTSQNRMIVVTPNRTMSDFTVFERISLAWSPITSLMWACGRHLYECTEEENDNSLEKDIATKMRLRALSRYGLDTEQVWRNHILAGNEDPQLKSLWYTLHFMKQYTEDMDQKSPGNKGSLVYAGIKSIVKSSLGMVESSRHNWSGLDKQSDIQNLNEERILALQLCGWIKKGTDVDVGPFLNSLVQEGEWERAAAVALFNLDIRRAIQILNEGASSEKGDLNLNVVAMELSGYTDEKNSLWREMCSTLRLQLNNPYLCVMFAFLTSETGSYDGVLYENKVAVRDRVAFACKFLSDTQLNRYIEKLTNEMKEAGNLEGILLTGLTKDGVDLMESYVDRTGDVQTASYCMLQGSPLDVLKDERVQYWIENYRNLLDAWRFWHKRAEFDIHRSKLDPSSKPLAQVFVSCNFCGKSISYSCSAVPHQGRGFSQYGVSGSPTKSKVTSCPGCRKPLPRCALCLINMGTPVSSCPGGTKSDEKVDLSKDKKLAQFNNWFTWCHNCRHGGHAGHMLSWFRDHAECPVSACTCKCMQLDTTGNLVPAETVQP
For the molecule B1, in the experiment with tag-free WDR59 [1], the binding result is listed as “binds”.

B2: N-terminally Flag-tagged MIOS (natural protein, human)
chain: MSGTKPDILWAPHHVDRFVVCDSELSLYHVESTVNSELKAGSLRLSEDSAATLLSINSDTPYMKCVAWYLNYDPECLLAVGQANGRVVLTSLGQDHNSKFKDLIGKEFVPKHARQCNTLAWNPLDSNWLAAGLDKHRADFSVLIWDICSKYTPDIVPMEKVKLSAGETETTLLVTKPLYELGQNDACLSLCWLPRDQKLLLAGMHRNLAIFDLRNTSQKMFVNTKAVQGVTVDPYFHDRVASFYEGQVAIWDLRKFEKPVLTLTEQPKPLTKVAWCPTRTGLLATLTRDSNIIRLYDMQHTPTPIGDETEPTIIERSVQPCDNYIASFAWHPTSQNRMIVVTPNRTMSDFTVFERISLAWSPITSLMWACGRHLYECTEEENDNSLEKDIATKMRLRALSRYGLDTEQVWRNHILAGNEDPQLKSLWYTLHFMKQYTEDMDQKSPGNKGSLVYAGIKSIVKSSLGMVESSRHNWSGLDKQSDIQNLNEERILALQLCGWIKKGTDVDVGPFLNSLVQEGEWERAAAVALFNLDIRRAIQILNEGASSEKGDLNLNVVAMALSGYTDEKNSLWREMCSTLRLQLNNPYLCVMFAFLTSETGSYDGVLYENKVAVRDRVAFACKFLSDTQLNRYIEKLTNEMKEAGNLEGILLTGLTKDGVDLMESYVDRTGDVQTASYCMLQGSPLDVLKDERVQYWIENYRNLLDAWRFWHKRAEFDIHRSKLDPSSKPLAQVFVSCNFCGKSISYSCSAVPHQGRGFSQYGVSGSPTKSKVTSCPGCRKPLPRCALCLINMGTPVSSCPGGTKSDEKVDLSKDKKLAQFNNWFTWCHNCRHGGHAGHMLSWFRDHAECPVSACTCKCMQLDTTGNLVPAETVQP
For the molecule B2, the binding result in the experiment with tag-free WDR59 [2] was “binds”.

B3: WDR24 ∆CTD (domain or fragment, human, UniProt Q96S15 1-700, looked up)
chain: MEKMSRVTTALGGSVLTGRTMHCHLDAPANAISVCRDAAQVVVAGRSIFKIYAIEEEQFVEKLNLRVGRKPSLNLSCADVVWHQMDENLLATAATNGVVVTWNLGRPSRNKQDQLFTEHKRTVNKVCFHPTEAHVLLSGSQDGFMKCFDLRRKDSVSTFSGQSESVRDVQFSIRDYFTFASTFENGNVQLWDIRRPDRCERMFTAHNGPVFCCDWHPEDRGWLATGGRDKMVKVWDMTTHRAKEMHCVQTIASVARVKWRPECRHHLATCSMMVDHNIYVWDVRRPFVPAAMFEEHRDVTTGIAWRHPHDPSFLLSGSKDSSLCQHLFRDASQPVERANPEGLCYGLFGDLAFAAKESLVAAESGRKPYTGDRRHPIFFKRKLDPAEPFAGLASSALSVFETEPGGGGMRWFVDTAERYALAGRPLAELCDHNAKVARELGRNQVAQTWTMLRIIYCSPGLVPTANLNHSVGKGGSCGLPLMNSFNLKDMAPGLGSETRLDRSKGDARSDTVLLDSSATLITNEDNEETEGSDVPADYLLGDVEGEEDELYLLDPEHAHPEDPECVLPQEAFPLRHEIVDTPPGPEHLQDKADSPHVSGSEADVASLAPVDSSFSLLSVSHALYDSRLPPDFFGVLVRDMLHFYAEQGDVQMAVSVLIVLGERVRKDIDEQTQEHWYTSYIDLLQRFRLWNVSNEVVKLS
Take B3: the binding result with tag-free WDR59 [1] was “binds”.
